# Assay results: article PMC5902456
# Like-named read-outs stand apart in the source and are kept apart here.
# How the values were obtained:
# [1] = molecular target: sfGFP-MAP7 (full-length human MAP7) (human) (UniProt Q14244); assay: TIRF microscopy of fluorescent proteins on immobilized microtubules; recruitment and motility: MAP7 (or ensconsin), 5 nM, flowed in first onto immobilized microtubules, then the kinesin-1 construct (1 nM K560); BRB80 pH 6.8 with 1 mM ATP, 150 mM K-acetate; fold change of kinesin fluorescence on the microtubule against no MAP
# [2] = molecular target: taxol-stabilized microtubules polymerized from porcine brain tubulin (porcine) (UniProt P02550)
# [3] = molecular target: sfGFP-Ensconsin, wild type (Drosophila melanogaster) (Drosophila melanogaster); assay: TIRF microscopy of fluorescent proteins on immobilized microtubules; recruitment and motility: MAP7 (or ensconsin), 5 nM, flowed in first onto immobilized microtubules, then the kinesin-1 construct (1 nM K560); BRB80 pH 6.8 with 1 mM ATP, 150 mM K-acetate; fold change of kinesin fluorescence on the microtubule against no MAP
# sfGFP-Ensconsin, wild type (Drosophila melanogaster) (Drosophila melanogaster), sequence (main, as listed by the source): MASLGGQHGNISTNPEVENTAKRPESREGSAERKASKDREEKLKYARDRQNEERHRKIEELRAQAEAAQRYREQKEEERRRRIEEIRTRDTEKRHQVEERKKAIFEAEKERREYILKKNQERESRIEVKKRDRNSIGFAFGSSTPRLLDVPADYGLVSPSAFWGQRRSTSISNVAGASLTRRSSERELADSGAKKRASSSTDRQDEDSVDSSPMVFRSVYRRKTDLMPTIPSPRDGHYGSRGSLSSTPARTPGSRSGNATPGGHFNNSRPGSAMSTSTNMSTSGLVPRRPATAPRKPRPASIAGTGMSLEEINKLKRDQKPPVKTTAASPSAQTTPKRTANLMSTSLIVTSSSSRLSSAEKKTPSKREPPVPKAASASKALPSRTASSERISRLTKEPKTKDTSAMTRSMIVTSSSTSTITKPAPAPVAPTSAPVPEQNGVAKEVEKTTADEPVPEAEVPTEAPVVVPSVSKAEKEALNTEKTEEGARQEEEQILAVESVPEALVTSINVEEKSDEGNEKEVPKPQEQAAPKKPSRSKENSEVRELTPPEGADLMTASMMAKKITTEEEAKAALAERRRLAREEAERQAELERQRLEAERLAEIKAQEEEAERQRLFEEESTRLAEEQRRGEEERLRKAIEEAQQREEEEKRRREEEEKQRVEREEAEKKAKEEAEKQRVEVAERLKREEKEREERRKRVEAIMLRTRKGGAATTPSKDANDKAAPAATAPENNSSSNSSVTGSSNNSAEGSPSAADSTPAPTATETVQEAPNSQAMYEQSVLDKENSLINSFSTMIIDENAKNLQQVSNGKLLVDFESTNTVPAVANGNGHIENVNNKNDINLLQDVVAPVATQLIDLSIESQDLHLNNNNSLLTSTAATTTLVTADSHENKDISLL
# [4] = molecular target: taxol-stabilized microtubules of native tubulin, biotin-tubulin and fluorescent-tubulin from porcine brain (~10:1:1) (porcine) (UniProt P02550); assay: as above
# [5] = molecular target: taxol-stabilized microtubules of native tubulin, biotin-tubulin and fluorescent-tubulin from porcine brain (~10:1:1) (porcine) (UniProt P02550); assay: TIRF microscopy of fluorescent proteins on immobilized microtubules; 5 nM KIF1A-mScarlet or 3 nM DDB-TMR on immobilized microtubules, alone or with 5 nM sfGFP-MAP7 or 100 nM mTagBFP-tau; 30 mM Hepes pH 7.4, 150 mM K-acetate, 2 mM Mg-acetate, 1 mM EGTA, 10% glycerol, 1 mM ATP
# [6] = molecular target: taxol-stabilized microtubules of native tubulin, biotin-tubulin and fluorescent-tubulin from porcine brain (~10:1:1) (porcine) (UniProt P02550); assay: TIRF microscopy of fluorescent proteins on immobilized microtubules; TIRF-M-based microtubule-binding assay; KD derived from saturation curves
# [7] = molecular target: taxol-stabilized microtubules polymerized from porcine brain tubulin (porcine) (UniProt P02550); assay: co-sedimentation; 500 nM sfGFP-MAP7 or sfGFP-tau with increasing microtubules; 50 mM Tris pH 8, 150 mM K-acetate, 2 mM Mg-acetate, 1 mM EGTA, 10% glycerol, DTT, taxol, BSA; 25 °C, 20 min; pelleted at 90,000 g; SDS-PAGE; apparent KD
# [8] = molecular target: taxol-stabilized microtubules polymerized from porcine brain tubulin (porcine) (UniProt P02550); assay: as above; remark: listed apart in the source
# [9] = molecular target: taxol-stabilized microtubules of native tubulin, biotin-tubulin and fluorescent-tubulin from porcine brain (~10:1:1) (porcine) (UniProt P02550); assay: single-molecule dwell time by TIRF microscopy; 250 pM sfGFP-MAP7 or 10 nM sfGFP-tau on immobilized microtubules; kymograph analysis; cumulative frequencies fit to a one phase exponential decay; 30 mM Hepes pH 7.4, 150 mM K-acetate buffer
molecule,measurement,setting,value
K508-mScarlet (from UniProt P33176 1-508) (domain or fragment),fold change in fluorescence intensity on the microtubule in the presence of sfGFP-MAP7,[1],10.9 fold
K523-mScarlet (from UniProt P33176 1-523) (domain or fragment),fold change in fluorescence intensity on the microtubule in the presence of sfGFP-MAP7,[1],152 fold
K560-mScarlet (truncated human kinesin-1) (from UniProt P33176 1-560) (domain or fragment),"KmMT of the microtubule-stimulated ATPase of 50 nM K560-mScarlet, with 50 nM sfGFP-MAP7",[2],0.27 µM
same,"KmMT of the microtubule-stimulated ATPase of 50 nM K560-mScarlet, without MAP7",[2],1.46 µM
same,fold change in fluorescence intensity on the microtubule in the presence of ensconsin,[3],147 fold
same,fold change in fluorescence intensity on the microtubule in the presence of sfGFP-MAP7,[1],165 fold
same,landing rate (motors μm^−1 min^−1),[4],0.09
same,landing rate with 5 nM sfGFP-MAP7 (motors μm^−1 min^−1),[4],1.34
dynein–dynactin-BicD2 (DDB)-TMR complex (from UniProt Q921C5 1-820),fluorescence intensity on the microtubule,[5],164 A.U.
same,fluorescence intensity on the microtubule with 5 nM sfGFP-MAP7,[5],147 A.U.
sfGFP-MAP7 (full-length human MAP7) (from UniProt Q14244 1-749) (natural protein),Kd,[6],3030 nM
same,Kd,[7],460 nM
same,Kd,[8],470 nM
same,dwell time decay constant τ,[9],82.3 s
sfGFP-MAP7ΔC (aa 1–353) (from UniProt Q14244 1-353) (domain or fragment),Kd,[6],1390 nM
KIF1A-mScarlet (human KIF1A 1–393) (domain or fragment) MAGASVKVAVRVRPFNSREMSRDSKCIIQMSGSTTTIVNPKQPKETPKSFSFDYSYWSHTSPEDINYASQKQVYRDIGEEMLQHAFEGYNVCIFAYGQTGAGKSYTMMGKQEKDQQGIIPQLCEDLFSRINDTTNDNMSYSVEVSYMEIYCERVRDLLNPKNKGNLRVREHPLLGPYVEDLSKLAVTSYNDIQDLMDSGNKARTVAATNMNETSSRSHAVFNIIFTQKRHDAETNITTEKVSKISLVDLAGSERADSTGAKGTRLKEGANINKSLTTLGKVISALAEMDSGPNKNKKKKKTDFIPYRDSVLTWLLRENLGGNSRTAMVAALSPADINYDETLSTLRYADRAKQIRCNAVINEDPNNKLIRELKDEVTRLRDLLYAQGLGDITD,fluorescence intensity on the microtubule,[5],1000 A.U.
same,fluorescence intensity on the microtubule with 5 nM sfGFP-MAP7,[5],332 A.U.
same,fluorescence intensity on the microtubule with 100 nM mTagBFP-tau,[5],427 A.U.
same,landing rate (motors μm^−1 min^−1),[5],1.5
same,landing rate with mTagBFP-tau (motors μm^−1 min^−1),[5],0.24
same,landing rate with sfGFP-MAP7 (motors μm^−1 min^−1),[5],0.38
